Test results reported in the DeepSol protein solubility set.

Test: soluble on expression in E. coli; label from the status in PepcDB or PDB records
For “MAHHHHHHMVKVKTISRSHLEWTKDRNGEVPRVNRNFDTKYNPMAKQTEFTRAIRAAKLDRMFAKPFVGALSGHHDTIQSVAVDYTSLSTVVSGAFDGGIIVWDVFTKRPKAIVDAHRHSVDGLVLSTDGVACFSASRDKVVKMWDLDFPSDDSKVEPLAEYLGEFPFSSIDHHFHKSIFVTSSDAVHLWDVNRTQPLQRFSWGDDTVSCCQFNKVETELVACCMSDRGVFIYDTRTKASHSKIIMEMCCTSVAWNPMDPNTFVTGSDDRNCYLFDMRVPGRPKSVFQGHINGITSVDFCPTGKKFVAGSLDATLRMWDIHQTTKSNSIEMYHTKRMAKVFSVKWSPDSSYIYSGSEDAILRVWKADASKPVRPLRGPERSSFNYMRSLKDRYSGFVEVRRIANQRNTPKAISRAQLRGKKAEKREFVKEASRRKHDDIKPLAQRKVYQSLN”, the “soluble on expression in E. coli” value was “not soluble”. For “MAHHHHHHMVNQTPHIVILSYDEEKINKFVSFLMSTFEPLESYEKAETYKLTFDRNDFHSGNGSSFAFKEVAKVAIVNKYYSAEVTISSCVVQSGENALRVEGSMPNGGLPDEANLPNGGLPDEANTPKMDLPDGAKPELQNQANELDAKDILCESVIFLFNNFTKKEKNIVNGNPFRSYDEECVEYIKDPESQQMIRNTHFDFSNLYKDVGIKIAIFPSSLEKDNKDIVNFFSDYFIECLYINYESAFLAEGGGQDDGHPSCPEEGDQNVKEEKTLLREFEEQEDDERLVEALHCHMWKGLQIKRDHLIIQHRGDFPMGEAFKGDEAARKGEKTPQKDEASPNGEKTPQKDEAAPNGENPPQRDAPATSGAAKIDLSGTLANSAKTPEGQKEELFMENFNKIVEKIRVAKMENKNCSNHAARRKKAEEIIFELQQYFCDIDGE”, the “soluble on expression in E. coli” value was “not soluble”. For “MAHHHHHHMVSAPQIRSIPCGSGDFSVMKRSLIARWQSGVHTPHGVVYRGAKMKNWPEQRIPENFKFTEEQRFRTKAIPRDVGTIPRNFVLGVLYRHQPCEVGGLWEHCTNDPEIVLDSKRHLREVLKQAREEGFVTFERDAISNEWLCFLTRERYEEVQRIVTAKSEAVDAHSGLRGAAATETSTYAEKFREMNVEAKEAHARRLEEEVANTTRYLRRFQQREIDYLPYTDLNGKVNFMWWYETRDVQQRADEVLTDSSSSKALAGEEEHKAGSQLEATTASTS”, the “soluble on expression in E. coli” value was “soluble”. In the case of “MAHHHHHHMVSMIVAGATGAIGRTVVQYAIQQPSIDRVVALTRFRNTAVSNYENLFGIIVAGEAGNTDSRGDGANSKRKKGSGSPAGTVTATPAEAAKIRPITMDWEEFTQLWVAKRSSTSAAASGADNCAAGAAATAITDPTERYRGIFGGHTYAAMCLGTTRKDAGSAKSFTRCDYDYVMAFTEAVLAYSAPAGLSPAKAFVHHIGDGGASKQVHVQEGMGKEVDVLAAMNANAAQSSGTLRVFCQVSSSNASSSSWFLYMQTKGIADESTVERVHRHNKCATAAAALSPVNLLLLQPGLLERHGKTRATEKFAKLIMSSIPVETCGAAIVSACKSLPIQHSVQRAETTSAAEQAKHDEVEGAQVEKENNTVAAGVRKTPLGKPYVATKALCKAGMPPNEPLPYIYAANNAVITDLASRLTA”, the “soluble on expression in E. coli” value was “not soluble”. In the case of “MAHHHHHHMVTGDMSTTVTGLDPHKMARRASRFVSSVKASTGTASSTGRTEMERYFENFASMDSAEGLETIGPKGIQHLCEDLAIKRDSFEMYTLIWKLGITRGGCIPRSDWLNMVYNYNIEVPVELKRRLREWVKDARGPSFVEFYSELYDYIRGDSARMMLPETAARAWDVLFRGDQQVAQWIRWYTGFYDCEVTRDIWRHVALFFNTGENATPYRKEDAWPTAFDLFAEWRETCETP”, the “soluble on expression in E. coli” value was “not soluble”. With “MAHHHHHHMWGFEAYAEGLSATLNIHGAPLTGVAPQAGESAPLAPPRCLWKKNRNNYLFDAQGKLLSAAEAHSPTIWRTHHAFSGRCALVNPTAPATGGAAAQSFGAPGWAEQAWTAYQSWSVGFRLSSTTTDEPHILLSVAPAYFPNLVSATGEIRKADAATLASLPCAPSAEEEVIYNKRMLETPLIWEEPYALSVECTTHGVFLWSDHWGIFGRKIADRCLEVRQGEVRQSGIATLPSPGPSPSSAAADEELALVAYDAALRLRWSAAGPGSRSSTDGGSARAVAPTLSVELKTGGDAAAGGAAPTCEEKVGEELWQHLVDLPLSLDEVACKAAFRPYVTLMEGGDAVELL” the “soluble on expression in E. coli” value was “not soluble”. In the case of “MAHHHHHHMWLNDFFAMELDGRAAMDANWGVLLAAFFRGPKKYIRDAGVLGEMQASDRYKMMERAVRDEMDMEEDVSRLYNNGMYELLRWLVATAEVTASAHEVTKSFLDAAAEEARNPTTTSAPRYLEGCYESVYNARWNHVVEVPGGEGTGLEVREGEPPQSWTYRAVGRTLEKDDGVQQFGATRPVLMVLTSDKGWPYSRNTIQDLPKDVFVNCEVDRVWQIVKGDLTAWFSTDGGTDFRPERRVLIGTPGIGKLVAAGSYLLYQLLHYDLEKIQVVVHCFGGGDAYVSDKTTRAATRYGDEDMCISELRSLRGHGRNVYIIYDVAKEGTPPPRHFAPTSGWGMIAVSFPKVTNYDEWAKQLQAARIIVNCPD”, the “soluble on expression in E. coli” value was “not soluble”. In the case of “MAHHHHHHMYGGNNLRKFIPLVDIPLLGNKNNLLIFCGKVNFGSKKQKEKVDKETKKFRKFLKISNMKNNDEDEKYEGDINEGDMKKKMKGISGMTRIDYKIYDIKIQEINKNFENKIKKIFDTCLQIDFFNNISILKDKKNIKLCDVAQVVIKSSNLIYFYPYTINDIQKIIHNLKLKDNTWNPTVSNDGQYVILQIQPLSEDVKMKKKKEAKDLFEKIKNDIRNVRYKIRDDIIKNIEGDQWKIVERNKLDNYIKDKMKLIENVYEQSVKNY”, the “soluble on expression in E. coli” value was “not soluble”. In the case of “MAHHHHHHMYGPSFSQTVLVAATPVVMKSPPTFFKGGNFRRISRRSTLKTTPERVPRNMYQFIVGSPSGELGHHSMDVMVSVQETVIDSGITQMCCSMLKNRRRRSLWRVTYVFGNSGDTLYNCRALSIDGLARRSMRPSPVPPDKLLSSAALIPFSVPRDFFIVFN”, the “soluble on expression in E. coli” value was “not soluble”. For “MAHHHHHHMYTRLTELFFISHTFRGRMSSTFCLQPSMMRPLLEQQRRFTSIISRFSSTVTSHVSSLADTHFMPLSEQCITEPRRPYPRRVSMQENLAERLTLQRSLRAHLVPLQVIVSKEKLYIELVWPSAALRAVENQKETMAHTVKGAAADGDDDGNDAALHHAMESPARTVSSGLSQRRPLEEHRTRFLAEFLRAYSPSTDVIGSDVLIYGRRGITITDVIPVGNYALRIVFSDGHSGGIYPYEYLFHLGCEKYSRMREYIRRLRAKHKSRDPPKRAPSQRLSRSRSAQRAEGRHMNSHGQDDQ”, the “soluble on expression in E. coli” value was “not soluble”. For “MAHHHHHHSLAPLISVLDLTPVSTGQQPGEALRHTLELAEVADSYQYTRFWIAEHHNSGAFVSAATEILIALAAARTGRIRVGSGGVMLPNHSPLKVAENFMSLEALFPGRIDLGLGRAPGTDGRTALALRRSREALAADDFPTQIALLRAFAGETPWPAGSVFDGVLAEPRGVKLPPLWILGSSLYGAQLAGELGVGYAFAYHFSQEDPAVAVQTYHRHFRPGPLAEPYAILGVNALAAPTEDEARDLSLTSAALSLGILSGQRGVLRSPEEARQWLQEMDTDPAKLLKKARIGTPEQVWASLQELGESTGAQEMLVTTYAHDPLKRQQSYRLLAQAAGMTPQKEEG”, the “soluble on expression in E. coli” value was “soluble”. In the case of “MAHHHHHHSLKTKIIVIVGPTAVGKTALAIEVAKRFNGEVVSGDSQQVYRGLDIGTAKASPEEQAAVPHHLIDVREITESYSAFDFVSEAKMTIEDIHSRGKLAIIAGGTGLYIQSLLEGYHLGGETPHEEILAYRASLEPYSDEELAHLVEQAGLEIPQFNRRRAMRALEIAHFGQDLENQEILYEPLIICLDDERSQLYERINHRVDLMFEAGLLDEAKWLFDHSPNVQAAKGIGYKELFPYFRGEQTFEEARESLKQATRRFAKRQLTWFRNRMQVTFYQIGESGVQDRILSQIEEFLDDEG”, the “soluble on expression in E. coli” value was “not soluble”. For “MAHHHHHHSLNDIVEVEIVDLTHEGAGVAKVDGLVFFVENALPSEKILMRVLKVNKKIGFGKVEKYLVQSPHRNQDLDLAYLRSGIADLGHLSYPEQLKFKTKQVKDSLYKIAGIADVEVAETLGMEHPVKYRNKAQVPVRRVNGVLETGFFRKNSHNLMPLEDFFIQDPVIDQVVVALRDLLRRFDLKPYDEKEQSGLIRNLVVRRGHYSGQIMVVLVTTRPKVFRVDQLIEQVIKQFPEIVSVMQNINDQNTNAIFGKEWRTLYGQDYITDQMLGNDFQIAGLAFYQVNTEMAEKLYQTAIDFAELKKDDVVIDAYSGIGTIGLSVAKHVKEVYGVELIPEAVENSKKNAQLNNISNAHYVCDTAENAMKNWLKDGIQPTVILVDPPRKGLTESFIKASAQTGADRIAYISCNVATMARDIKLYQELGYELKKVQPVDLFPQTHHVETVALLSKLDVDKHISVEIELDEMDLTSAESKATYAQIKEYVWNKFELKVSTLYIAQIKKKCGIELREHYNKSKKDKQIIPQCTPEKEEAIMDALRHFKMIEG”, the “soluble on expression in E. coli” value was “soluble”.
